Measurements from patent US20240209022A1, “NOVEL PEPTIDE HAVING ANTI-INFLAMMATORY AND TISSUE REGENERATIVE ACTIONS” (KOREA RESEARCH INSTITUTE OF BIOSCIENCE AND BIOTECHNOLOGY, priority 2020, published 2024).

How the values were obtained:
[1] = test system: gastritis/gastric ulcer model; experiment: HCl/ethanol gastritis/gastric ulcer model; format: in vivo, C57BL/6J mice; settings: vs PBS buffer group
Experimental: For a gastritis/gastric ulcer model, 7-week-old male C57BL/6J mice were used, and from 3 days before induction, the peptides of the present invention were dissolved in PBS buffer and then orally administered to the mice by 150 μL per animal at the same time once a day. Amuc_1409 or PEP001, PEP002, PEP003, PEP004, or PEP005 was dissolved in PBS buffer at a concentration of 6.7 μM, and novel tetrapeptides PEP006, PEP007, PEP008, PEP009, and PEP010 and novel tripeptides PEP011, PEP012, and PEP013 were each dissolved in PBS buffer at a concentration of 0.15 μg/150 μL (PEP006) or 0.2 μg/150 μL (PEP007, PEP008, PEP009, PEP010, PEP011, PEP012, and PEP013). For the induction of acute gastritis/gastric ulcer, 0.3 M HCl/60% ethanol was orally administered to the mice by 0.2 mL for each, the tissue was harvested after 1 hour, photographs of the inner surface of the stomach were taken, and the degree of damage to the stomach was compared. Measurements of gastritis/gastric ulcer indexes were converted into scores according to the degree of mucosal damage. A score of 0 was given if there was no damage, a score of 1 was given to an insignificant circle-shaped hemorrhagic corrosion site of less than 5 mm, a score of 2 was given to a hemorrhagic corrosion site with a length more than 5 mm, and a score of 3 was given to one or more hemorrhagic corrosion sites corresponding to the score of 2, a score of 4 was given to a hemorrhagic corrosion of more than 5 mm in length and less than 2 mm in width, a score of 5 was given to 2 to 3 hemorrhagic corrosions corresponding to the score of 4, a score of 6 was given to 4 to 5 hemorrhagic corrosions corresponding to the score of 4, a score of 7 was given to 6 or more hemorrhagic corrosions corresponding to the score of 4, and a score of 8 was given if there was hemorrhagic corrosion throughout the gastric mucosa. In order to confirm additional anti-inflammatory activity of the administered peptides, mRNA expression of inflammation-related genes, Tnfα, Il-1β, iNos, Cox2, and Il-10, in the gastric mucosal tissue was examined.

[2] = test system: MIA-induced degenerative arthritis model; experiment: MIA-induced degenerative arthritis model; format: in vivo, C57BL/6J mice
Experimental: As a degenerative arthritis model, 9-week-old specific pathogen free (SPF) male C57BL/6J mice were anesthetized, the area around the right knee joint was cleanly shaved, and 10 μL of MIA solution (monosodium iodoacetate 0.5 mg in 10 μL 0.9% sterile saline) was injected into the knee joint cavity to induce arthritis. From 3 days before MIA (monosodium iodoacetate) solution injection, Amuc_1409 or PEP001, PEP002, PEP003, PEP004, PEP005, PEP006, PEP007, PEP008, PEP009, PEP010, PEP011, PEP012, or PEP013 was dissolved in PBS buffer at a concentration of 6.7 μM and then injected into the mouse peritoneal cavity at 150 μL per animal once a day at the same time. On day 3 (0 days) after administration of Amuc_1409 or PEP001 to PEP013, an additional intraperitoneal injection was given 1 hour before MIA injection, the drug was intraperitoneally injected once a day at the same time after MIA injection, and the experiment was terminated on the 30th day after MIA injection. In the control group, the same volume of PBS buffer was injected intraperitoneally. After MIA injection, the diameter of the knee joint was measured using a caliper for 7 days at 2-day intervals (0, 1, 3, 5, and 7 days) to evaluate swelling caused by inflammatory changes of the joint. […] At this time, the weight bearing on the limb was lower as arthritis was more severe. The weight-bearing weight (g) of each of both paws was measured, and in this experiment, the value was expressed as the ratio (%) of the right hind limb with arthritis to the total hind limb. Weight bearing ratio (%)=weight-bearing weight of right hind limb with arthritis (g)/weight-bearing weight of both hind limbs (g)×100 After termination of the experiment, the test animals were sacrificed, then the knee joint tissue of the mouse was fixed with 10% neutral buffered formalin, and the bone was decalcified with a 0.5 M EDTA solution. Next, the joint tissue was embedded in paraffin to prepare a 5 μm joint section, and Safranin O staining was performed to histopathologically analyze the degree of damage to the cartilage tissue. At this time, the degree of damage to the cartilage tissue was evaluated by examining the degree of safranin O staining of the sections and scored according to OARSI (Osteoarthritis Research Society International grade) guidelines. The scoring criteria according to the OARSI guidelines are as follows (Table 1). [table]

[3] = test system: collagen induced arthritis (CIA) model; experiment: Collagen induced arthritis (CIA) rheumatoid arthritis model; format: in vivo, DBA/1J mice; settings: vs PBS buffer group
[4] = test system: full-thickness skin defect wound-induced model; experiment: Full-thickness skin defect wound-induced model (tail); format: in vivo, C57BL/6J mice; settings: 120 μM, 25 μL applied once a day for 28 days; vs vehicle
Experimental: In order to confirm the tissue regeneration efficacy of the novel peptides, an experiment was conducted using a wound-induced model induced by a full-thickness skin defect of mouse's tail. For a full-thickness skin defect wound-induced model, 9-week-old specific pathogen free (SPF) male C57BL/6J mice were anesthetized, and then in order to indicate full-thickness wounding, a full-thickness wound with a size of 10 mm×3 mm was made on the dorsal part of the mouse's tail, about 1.0 cm away from the base of the mouse's tail, using an aseptic dissection mass No. 10. Bleeding was stopped by compressing the wound, and the wound was covered with a film spray dressing (Cavilon, 3M). For 28 days from the day of wound induction, Amuc_1409 or PEP001 to PEP013 were each dissolved in vehicle (50% ethanol, 20% propylene glycol, 30% water) at a concentration of 120 μM and then applied to the wound site by 25 μL per animal once a day. For the control group, the same volume of vehicle (50% ethanol, 20% propylene glycol, 30% water) was applied to the wound site. The test was terminated on day 29 after wound induction. In order to observe the wound healing effect, the wound sites of animals in each test group were individually photographed using a digital camera at a constant height from the wound for 28 days at 7-day intervals from the day of wound induction, and the wound area was measured using the Image J Soft program.

B1: Amuc_1409: SEQ ID NO: 15, functional fragment obtained by eliminating the leader sequence from SEQ ID NO: 14; protein derived from Akkermansia muciniphila (protein)
chain: IPESSVPAAAVSSIKGAYPNAGPIEWDSEMHGMERIYEAEFRINGFQFDVKIAPDGKIVRIKEEIAASSLPEAVRASVLKRYPGCRIKEAEKITEGELVRYKVEVADSRDDYDVLIAPDGNILHVDR
modifications: Amuc_1409_fragment
notes: protein derived from Akkermansia muciniphila
Il-10 mRNA expression in gastric mucosal tissue ([1]; RT-qPCR): increased
Tnfα mRNA expression in gastric mucosal tissue ([1]; RT-qPCR): significantly decreased
iNos mRNA expression in gastric mucosal tissue ([1]; RT-qPCR): significantly decreased
degree of gastric mucosal damage (score) ([1]; oral, 1 hour after HCl/ethanol): significantly decreased
weight bearing ratio ([2]; 2 weeks and 4 weeks after MIA injection, vs PBS buffer group): significantly increased
histopathological findings in knee joint tissue, safranin O staining ([2]; after termination of the experiment): only a slight loss of safranin O was observed in the cartilage zone and the overall cartilage morphology was maintained
diameter of the knee joint ([2]; day 1 after MIA injection, vs PBS buffer group, i.p.): significantly decreased
thickness of the knee joint ([2]; days 3, 5, and 7 after MIA injection, vs PBS buffer group): significantly decreased
degree of cartilage destruction by OARSI score ([2]; vs PBS buffer group): significantly decreased
arthritis index ([3]; after day 30 until the experiment end day): significantly decreased
thickness of the ankle joint ([3]; at the end of the experiment): significantly decreased
arthritis index ([3]; day 30 after the first CII injection): decreased close to a significant level
histopathological changes in hind paw tissue (H&E): inflammatory cell infiltration, synovial proliferation, pannus formation [3]: significantly diminished
quantitative histopathological arthritis index [3]: significantly decreased or tended to decrease
swelling of the hind paws by macrophotography [3]: reduced overall
wound area [4]: significantly decreased
wound size (visually confirmed) [4]: rapidly decreased
